Data: patent US20240191188A1 (JUNO THERAPEUTICS, published 2024)

Molecular target: T1, soluble oligomeric streptavidin mutein (oligomer of Strep-tactin, n≥3, crosslinked with sulfo-SMCC and … (Streptomyces avidinii, UniProt P22629 38-163, chemically crosslinked with sulfo-SMCC and iminothiolan))
T1 construct: Oligomers of homo-tetramers separated from monomeric and dimeric mutein by size exclusion chromatography; no single molecular weight; also called soluble oligomeric Strep-tactin; oligomeric mutein streptavidin
Test: mixing of peptide-tagged Fab with soluble oligomeric streptavidin mutein at room temperature

binding result: binds
B1: αCD28 Fab fragment derived from the monoclonal anti-human CD28 antibody CD28.3, heavy chain carboxy-terminally fused to the Twin-Strep-tag (monomeric) (Fab)
heavy (part 1 of 2): LQQSGAELVKPGASVRLSCKASGYTFTEYIIHWIKLRSGQGLEWIGWFYPGSNDIQYNAKFKGKATLTADKSSSTVYMELTGLTSEDSAVYFCARRDDFSGYDALPYWGQGTMVTV
heavy (part 2 of 2): not shown
light: DIQMTQSPASLSVSVGETVTITCRTNENIYSNLAWYQQKQGKSPQLLIYAATHLVEGVPSRFSGSGSGTQYSLKITSLQSEDFGNYYCQHFWGTPCTFGGGTKLEIKR
notes: Recombinantly produced in E. coli; also called anti-CD28 Fab fragment; αCD28 Fab fragment of the antibody 28.3; not shown: human kappa light chain constant domain
